Results on four molecules are retold here after US20100028924A1, “Method Of Diagnosing Pon1-Hdl Associated Lipid Disorders” (Rappaport Family Institute Research in the Medical Sciences, priority 2006, published 2010).

A short description of data set [1]: Inactivation kinetics of rePON1 192 isozymes in activity buffer. The data set is classed as biochemical. The following applies: EDTA and β-mercaptoethanol, 37° C. How it is done: (§1) FIG. 1 is a graph showing the inactivation kinetics of the wild-type rePON1-192K (SEQ ID NO:2), -192R (SEQ ID NO:4) and -192Q (SEQ ID NO:6) isozymes, bound to rHDL-apoA-I, or in buffer. Delipidated enzymes were incubated with a 50-fold excess of rHDL-apoA-I, or in activity buffer, and subjected to inactivation in the presence of EDTA (5 mM) and β-mercaptoethanol (10 mM) at 37° C. Residual activity at various time points was determined by initial rates of phenyl acetate hydrolysis (2 mM) and plotted as percent of the activity at time zero. Data were fitted to a single exponential for wild-type rePON1-192K on rHDL-apoA-I, and to double-exponentials for the remaining samples. The inactivation rate constants and amplitudes were derived from this fit;
(§2) Inactivation rates of rePON1s were measured as described [Gaidukov, L. and D. S. Tawfik, Biochemistry, 2005. 44(35): p. 11843-54]. Briefly, rePON1 samples were delipidated using Bio-Beads SM-2 (BioRad) and incubated in buffer, or with 50-fold molar excess of rHDL-apoA-I. EDTA (10 mM) and β-mercaptoethanol (20 mM) were added, and samples were incubated at 37° C. Residual activity at different time points was determined with 2 mM phenyl acetate, and inactivation rates were fitted to either mono- or double-exponentials [Gaidukov, L. and D. S. Tawfik, Biochemistry, 2005. 44(35): p. 11843-54].
(§3) The resultant inactivation profiles of wt rePON1 (SEQ ID NO: 2), rePON1-192Q (SEQ ID NO: 6) and rePON1-192R (SEQ ID NO: 4), were fitted to exponential curves as illustrated in FIG. 1.

Data set [2] has as its system apoA-I rHDL. Description: Inactivation kinetics of rePON1 192 isozymes bound to rHDL-apoA-I (EDTA/β-mercaptoethanol, residual phenyl acetate hydrolysis). The class given is biochemical. The following applies: for A2 (amplitude) (%): as printed in Table 2 beside the SPR constants of the Δ20 variants. How it is done:
as §1, §2, §3

The test system of data set [3] is apoA-I rHDL. Description: Stimulation of enzymatic activity of rePON1 192 isozymes by rHDL-apoA-I. The class given is biochemical. The following applies: for Vmax (%) activation factor: relative to delipidated enzyme (100%). From the text: The activity is presented in relation to the initial activity of the delipidated enzymes (percentage of stimulation). Data were fitted to the Langmuir saturation curve, from which the activation factor (Vmax) and the apparent affinity (Kapp) were derived;
Stimulated activity is presented as the percentage of the initial activity of the delipidated enzymes (corresponds to 100%). Data were fitted to the Langmuir saturation curve, from which the activation factor (Vmax) and the apparent affinity (Kapp) were derived;
Delipidated rePONs at 0.2 μM were incubated with a range of rHDL concentrations (0.1-10 μM) for 3 hrs at 37° C. Enzymatic activity was determined in activity buffer (50 mM Tris pH 8.0, 1 mM CaCl2) with substrates at 1 mM concentrations as described [Gaidukov, L. and D. S. Tawfik, Biochemistry, 2005. 44(35): p. 11843-54]. 5-(thiobutyl)-butyrolactone (TBBL) was applied at 0.25 mM, and product formation was monitored spectrophotometrically at 412 nm using 5,5′-dithio-bis-2-nitrobenzoic acid (DTNB) as described [Khersonsky, O. and D. S. Tawfik, Chembiochem, 2006. 7(1): p. 49-53].
Stimulation of the enzymatic activity was examined by incubating rePON1 isozymes with a range of rHDL concentrations (at the HDL/PON ratio of 0.5-50), and measuring the catalytic activity with various substrates as detailed hereinabove. FIGS. 3A-B illustrate the enzymatic activity of the rePON1 isozymes with δ-nonanoic lactone as substrate (FIG. 3A) and thiobutyl butiryl lactone (TBBL) as substrate (FIG. 3B). FIGS. 4A-D illustrate the enzymatic activity of the rePON1 isozymes with γ-dodecanoic lactone as substrate (FIG. 4A), δ-valerolactone as substrate (FIG. 4B), phenyl acetate as substrate (FIG. 4C) and paraoxon as substrate (FIG. 4D). Data were fitted to the Langmuir saturation curve to give the activation factor Vmax (in percent relative to the delipidated PON1) and the apparent affinity Kapp.

In data set [4] the target is apoA-I rHDL. Description: Surface plasmon resonance binding of Δ20-rePON1 192 isozymes to immobilized rHDL-apoA-I. The following applies: for Kd / koff / kon: SPR, 25° C., biotinylated rHDL-apoA-I on streptavidin chip. How it is done:
FIGS. 2A-C are sensorgrams for the binding of wt Δ20-rePON1-192K—SEQ ID NO:8 (FIG. 2A), Δ20-rePON1-192R—SEQ ID NO:10 (FIG. 2B) and Δ20-rePON1-192Q—SEQ ID NO:12 (FIG. 2C) isozymes to rHDL-apoA-I. Biotinylated rHDL-apoA-I particles were immobilized onto the streptavidin surface (SA chip), and a series of PON1 concentrations were injected over the immobilized and blank surfaces to obtain the net binding response. Binding was performed at 25° C. Association and dissociation phases were fitted to a single exponential, from which kinetic rate constants were derived. PON1 concentrations in all the sensorgrams are (from bottom to top) 25, 40, 60, 80, 100, 150 and 200 nM;
Surface plasmon resonance (SPR) measurements: rHDL-apoA-I particles containing 0.7% of N-biotinyl-dipalmitoylphosphatidylethanolamine (N-biotynyl-DPPE; Avanti Polar Lipids) were prepared and purified as described [Gaidukov, L. and D. S. Tawfik, Biochemistry, 2005. 44(35): p. 11843-54]. SPR was performed on BIAcore 3000 (Uppsala, Sweden) as described [Gaidukov, L. and D. S. Tawfik, Biochemistry, 2005. 44(35): p. 11843-54]. Briefly, the biotinylated rHDL particles were adsorbed on streptavidin (SA5) chip, and Δ20-rePON1 isozymes were injected over the immobilized and blank surfaces to obtain the net binding response. Binding rate constants were obtained by fitting of association and dissociation phases to single exponentials as described [Gaidukov, L. and D. S. Tawfik, Biochemistry, 2005. 44(35): p. 11843-54].
The above results were further supported by affinity measurements using surface plasmon resonance. It was previously shown that HDL affinity of the intact rePON1 is very high (sub-nanomolar) and could not be determined accurately using surface plasmon resonance [Gaidukov, L., and Tawfik, D. S. (2005)Biochemistry 44, 11843-11854]. In contrast, binding affinity of the truncated variant lacking the first 20 amino acids of the hydrophobic N-terminus (Δ20-rePON1) could be amply determined. Therefore, the truncated variants of PON1 192 isozymes were prepared and their HDL binding affinities measured. Typical binding sensorgrams between Δ20-rePON1 isozymes and the immobilized HDL particles are portrayed in FIGS. 2A-C, and the derived rate and affinity constants are summarized in Table 2 herein below.

Where [5] appears, read: apoA-I rHDL, 50-fold molar excess, EDTA and β-mercaptoethanol, 37° C.
[6] abbreviates: substrate γ-dodecanoic lactone 1 mM.
Where [7] appears, read: substrate δ-nonanoic lactone 1 mM.

B1: rePON1-192Q: recombinant PON1 with glutamine at position 192, generated to mimic the human Q isozyme (protein)
chain: MAKLTALTLLGLGLALFDGQKSSFQTRFNVHREVTPVELPNCNLVKGVDNGSEDLEILPNGLAFISSGLKYPGIMSFDPDKSGKILLMDLNEEDPVVLELGITGNTLDISSFNPHGISTFTDEDNTVYLLVVNHPDSSSTVEVFKFQEEEKSLLHLKTIRHKLLPSVNDIVAVGPEHFYATNDHYFADPYLQSWEMHLGLAWSFVTYYSPNDVRVVAEGFDFANGINISPDGKYVYIAELLAHKIHVYEKHANWTLTPLKSLDFDTLVDNISVDPVTGDLWVGCHPNGMRIFYYDPKNPPGSEVLRIQDILSEEPKVTVVYAENGTVLQGSTVAAVYKGKLLIGTVFHKALYCEL
modifications: rePON1-192Q isozyme
notes: recombinant PON1 with glutamine at position 192, generated to mimic the human Q isozyme
For B1, the “k1^inactiv (first, fast phase)” value stood at 5.2 h⁻¹ in data set [1] and 1.1 h⁻¹ in data set [2] (setting [5]). Further, the figures for the “k2^inactiv (second, slow phase)” value in data set [1] and in data set [2] (setting [5]) were 0.3 h⁻¹ and 0.01 h⁻¹, respectively. Also, the “A2 (%) (amplitude of second, slow inactivation phase = HDL-bound fraction)” value in data set [2] (setting [5]) is 70%. Further, the “reduction of Vmax compared to wt rePON1-192K” value in data set [3] (all the substrates tested) is 50-80%. Moreover, the “Kapp (apparent affinity for HDL stimulation)” value in data set [3] (substrate TBBL 0.25 mM) was 0.5 ± 0.1 µM; in data set [3] (substrate phenyl acetate 1 mM), 0.8 ± 0.1 µM; in data set [3] (setting [6]), 0.6 ± 0.2 µM; in data set [3] (setting [7]), 0.6 ± 0.1 µM; in data set [3] (substrate δ-valerolactone 1 mM), 1.1 ± 0.1 µM. Also, the “Vmax (%) activation factor” value was determined as 340 ± 4% in data set [3] (substrate TBBL 0.25 mM); 128 ± 1% in data set [3] (substrate paraoxon 1 mM); 165 ± 1% in data set [3] (substrate phenyl acetate 1 mM); 382 ± 20% in data set [3] (setting [6]); 778 ± 12% in data set [3] (setting [7]); 481 ± 7% in data set [3] (substrate δ-valerolactone 1 mM).

B2: wt Δ20-rePON1-192K: truncated rePON1 variant lacking the first 20 amino acids of the hydrophobic N-terminus, 192K (protein)
chain: MAKSSFQTRFNVHREVTPVELPNCNLVKGVDNGSEDLEILPNGLAFISSGLKYPGIMSFDPDKSGKILLMDLNEEDPVVLELGITGNTLDISSFNPHGISTFTDEDNTVYLLVVNHPDSSSTVEVFKFQEEEKSLLHLKTIRHKLLPSVNDIVAVGPEHFYATNDHYFADPYLKSWEMHLGLAWSFVTYYSPNDVRVVAEGFDFANGINISPDGKYVYIAELLAHKIHVYEKHANWTLTPLKSLDFDTLVDNISVDPVTGDLWVGCHPNGMRIFYYDPKNPPGSEVLRIQDILSEEPKVTVVYAENGTVLQGSTVAAVYKGKLLIGTVFHKALYCEL
modifications: Delta20-rePON1-192K isozyme
notes: truncated rePON1 variant lacking the first 20 amino acids of the hydrophobic N-terminus, 192K
Regarding B2, in data set [4], binding was characterised by a dissociation constant (Kd) of 100 nM, the koff entry is listed as “(2.0 ± 0.2) × 10^−2 s^−1” and the kon entry is reported as “(2.0 ± 0.3) × 10^5 s^−1 M^−1”. Further, the “fold higher HDL binding affinity than the Q isozyme” value in data set [4] (relative to the Q isozyme) is listed as 3 fold. The “A2 (amplitude) (%)” value in data set [2] was found to be 100%.

B3: Δ20-rePON1-192Q: truncated rePON1 variant lacking the first 20 N-terminal amino acids, 192Q isozyme (protein)
chain: MAKSSFQTRFNVHREVTPVELPNCNLVKGVDNGSEDLEILPNGLAFISSGLKYPGIMSFDPDKSGKILLMDLNEEDPVVLELGITGNTLDISSFNPHGISTFTDEDNTVYLLVVNHPDSSSTVEVFKFQEEEKSLLHLKTIRHKLLPSVNDIVAVGPEHFYATNDHYFADPYLQSWEMHLGLAWSFVTYYSPNDVRVVAEGFDFANGINISPDGKYVYIAELLAHKIHVYEKHANWTLTPLKSLDFDTLVDNISVDPVTGDLWVGCHPNGMRIFYYDPKNPPGSEVLRIQDILSEEPKVTVVYAENGTVLQGSTVAAVYKGKLLIGTVFHKALYCEL
modifications: Delta20-rePON1-192Q isozyme
notes: truncated rePON1 variant lacking the first 20 N-terminal amino acids, 192Q isozyme
Regarding B3, in data set [4], the affinity, expressed as Kd, was 300 nM; the koff result is listed as “(4.2 ± 0.2) × 10^−2 s^−1”; the kon result was “(1.4 ± 0.5) × 10^5 s^−1 M^−1”. Also, the “A2 (amplitude) (%)” value in data set [2] came out at 70%.

B4: Δ20-rePON1-192R: truncated rePON1 variant lacking the first 20 N-terminal amino acids, 192R isozyme (protein)
chain: MAKSSFQTRFNVHREVTPVELPNCNLVKGVDNGSEDLEILPNGLAFISSGLKYPGIMSFDPDKSGKILLMDLNEEDPVVLELGITGNTLDISSFNPHGISTFTDEDNTVYLLVVNHPDSSSTVEVFKFQEEEKSLLHLKTIRHKLLPSVNDIVAVGPEHFYATNDHYFADPYLRSWEMHLGLAWSFVTYYSPNDVRVVAEGFDFANGINISPDGKYVYIAELLAHKIHVYEKHANWTLTPLKSLDFDTLVDNISVDPVTGDLWVGCHPNGMRIFYYDPKNPPGSEVLRIQDILSEEPKVTVVYAENGTVLQGSTVAAVYKGKLLIGTVFHKALYCEL
modifications: Delta20-rePON1-192R isozyme
notes: truncated rePON1 variant lacking the first 20 N-terminal amino acids, 192R isozyme
On to B4, for which, in data set [4], binding was characterised by a dissociation constant (Kd) of 110 nM, the koff result was “(2.9 ± 0.2) × 10^−2 s^−1” and the kon entry is listed as “(2.6 ± 0.3) × 10^5 s^−1 M^−1”. Moreover, the “A2 (amplitude) (%)” value in data set [2] is on record as 90%.
